Variants at the floor of the assay were thinned out.
B1: TPR 5TU (parent)
chain: GGAUCUUCUCGAUCUAACAAAAAAGACAAAUCUGCCACAAAGCUUGAGAGCAUCUUCGGAUGCAGAGGCGGCAGCCUUCGGUGGCGCGAUAGCGCCAACGUUCUCAACUAUGACACGCAAAACGCGUGCUCCGUUGAAUGGAGUUUAUCAUG

Variants of: B1
Test: polymerase ribozyme fitness, log enrichment relative to wild type (log ratio); higher = more active; in vitro selection for triplet polymerase activity
Summary of the method: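 Streptavidin-bead capture of gel-excised extended constructs, followed by RT-PCR, closed a single triplicate in vitro selection round. That round began by annealing PCR-built, transcribed mutant libraries of each subunit of a heterodimeric triplet polymerase ribozyme with a biotinylated primer, the partner subunit and triplets, then incubating them frozen at −7 °C. After Illumina sequencing of inputs and outputs, genotypes needed ≥10 input reads and ≥1 read per output. Fitness is the base-2 logarithm of genotype enrichment over wild-type enrichment, using inverse-variance-weighted replicate averages.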

| Variant | polymerase ribozyme fitness (log ratio) |
| --- | --- |
| GGAUCUUCUCGAUCUAACAUAAAAGACUAAUCUGCCACAAAGCUUGAGAGCAUCUUCGGAUGCAGAGGCGGCAGCCUUCGGUGGCGCGAUAGCGCGAACGUUCUCAACUAUGACACGCAAAACGCGUGCUCCGUUGAAUGGAGUUUAUCAUG | ≤ -4.2 |
| GGAUCUUCUCGAUCUAACAGAAAAGACAAAUCUGCCACAAAGCUUGAGAGCAUCUUCGGAUGCAGAGGCGGCAGCCUUCGGUGGCGCGAUAGCGCCAACGUGCUCAUCUAUGACAUGCAAAACGCGUGCUCCGUUGAAUGGUGUUUAUCAUG | ≤ -4.2 |
| GGAUCUUCUCGAUCUAACAUAAUAGACAAAUCUGCCACAAAGCUUGAGAGCAUCUUCGGAUGCCGAGGCGGCAGCCUUCGGUGGCGCGAUGGCGCCAACGUUCUCAGCUAUGACACGCAAAACGCGUGCUCCGUUGAAUGGAGUUUAUCAUG | ≤ -4.2 |
| GGAUCUUCUCGAUCUAACAUUAAAGACAAAUCUGCCACAAAGCUUGAGAGCAUCUUCGGAUGCAGAGGCGGCAGCCUUCGGUGGCGCGAUAGCGCCAACGUUCUCAACUAUGACACGCAAAACGCGUGCUCCGUUGAAUGGAGUUUAUCAUG | -0.727 |
| GGAUCUUCUCGAUCUAACAGAAAAGACAAAGCUGCCACAAAGCUUGAGAGCAUCUUCGGAUGCAGAGGCGGCAGCCUUCGGUGGCACGAUAGCGCCAACGUUCUCAACUAUGACACGCAAAACGCGUGCUCCGUUGAAUGGAGUUUAUCAUG | -1.52 |
| GGAUCUUCUCGAUCUAACAUAAGAGACAAAUCUGCCACAAAGCUUGAGAUCAUCUUCGGAUGCAGAGGCGGCAGCCUUCGGUGGCACGAUAGCGCCAACGUUCUCAACUCUGACACGCAAAACGCGUGGUCCGUUGAAUAGAGUUUAUCAUG | ≤ -4.2 |
| GGAUCUUCUCGAUCUAACAGAAAAGACAAAUCUGCCACAAAGCUUGAGAGCAUCUUCGGAUGCAGAGUCGGCAGCCUUCGGUGGUGCGAUAGCGCCAACGUUCUCAACUAUGACACGCAAAACGCGUGCUCCGUUGAAUGGAGUUUAUCAUG | ≤ -4.2 |
| GGAUCUUCUCGAUCUAACAUAAAAGACACGUCUGCCACAAAGCUUGAGAGCAUAUUCGGAUGCAGACGCGGCAGCCUUCUGUGGCGCGAUAGUACCCAUGUUCUCAACUAUGACACGCAAAACGCGUGCUCCGUUGAAUGGAGUUUAUCAUG | ≤ -4.2 |
| GGAUCUUCUCGAUCUAACAUAAAAGACAGAUCUGCCACAAAGCUUGAGAGCAUCUUCGGAUGCAGAGGCGGCAGCCUUCGGUGGCGCGAUCGAGCCAACGUUCUCAACUAUGACACGCAAAACGCGUUCUCCGUUGAAUGGAGUUUAUCAUG | ≤ -4.2 |
| GGAUCUUCUCGAUCUAACAGAAAAGACAAAUCUGCCACAAAGCUUGAGAGCAUCUUCGGAUGCAGAGGCGGCAGCCUUCGAUGGCGCGAUAGCGCUAACGUUCUCAACUAUGAGACGCAAAACGCGGGCUCCGUUGAAUGGCGUUUAUCAUG | ≤ -4.2 |
| GGAUCUUCUCGAUCUAACAGAAAAGACAAAUCUGCCACAAAGCUUGAGAGCAUCUUCGGAUGCAGAGGCGGCAGCCUUCCGAGGCGCGAUAGCGCCAACAUUCUCAACUAUGACACGCAAAACGCGUGCUCCGUCGAAUGGAGUUUAUCAUG | ≤ -4.2 |
| GGAUCUUCUCGAUCUAACAUAACAGACAAAUCUGCCACAAAGCUUGCGAGCAUCGUCGGAUGCAGAGGCGGCAGCCUUCGGUGGCUCGAUGGCGCCAACGUUCUCAACUAUGACACGCAAAACGCGUGCUCCGUUGAAUGGAGUUUAUCAUG | ≤ -4.2 |
| GGAUCUUCUCGAUCUAACAUAAAGGACAAAUGUGCCACAAAGCUUGAGAGCAUCUUCGGAUGCAGAGGCGGCAGCCUACGGUCGCGCGAUAGCGCCAACGUUCUCAACUAUGACACGCAAAACGCGUGCUCCGUUGAAUGGAGUUUAUCAUG | ≤ -4.2 |
| GGAUCUUCUCGAUCUAACAGAAAAGACAAAUCUGCCACAAAGCUUGAGAGCAUCUUCGGAUGCAGAGGCGGCAGCCUUCGGUAGCGCCAUAGGGCCAACAUUCUCAACUAUGACACGCAAAACGCGUGCUCCGUUGAAUGGAGUUUAUUAUG | ≤ -4.2 |
| GGAUCUUCUCGAUCUAACAGAAAAGACAAAUCUGCCACAAAGCUUGAGAGCAUCUUCGGAUGCAGAGGCGGCAACCUUCGGUGGCGUGAUAGCGCCAACGCUCUCAUCUAUGACACGCAAAACGCGUGCUCCGUUGAAUGGAGUUUAUCAUG | ≤ -4.2 |
| GGAUCUUCUCGAUCUAACAUACAAGACAAAUCUGCCACAAAGCUUGAGAGCAUCUUCGGAUGCAGAGGCGGCAGCCUUCGGGGGCUCGAUAGCGCCAACGGUGUCAACUAUGACACGCAAAACGCGUGCUCCGUUGAAUGGAUUUUAUCAUG | ≤ -4.2 |
| GGAUCUUCUCGAUCUAACAUAAAAGACAGAUCUGCCACAAAGCUUGACCGCAUCUUCGGAUGCAGAGGCGGCAGCCUUCGGUGGCGCGAUAGCGCCAACGUUCUCAACUAUGACACACAAAACGCGUGCUCCGGUGCAAGGAGUUUAUCAUG | ≤ -4.2 |
| GGAUCUUCUCGAUCUAACAGAAAAGACAAAUCUGCCACAAAGCUUGAGAGCAUCAUCGGAUGCAGAGGCGGCAGCCUUCGGUGGCGCGAUAGCGCAAACGUUCGCAACUAUGACACGCAAAACGCGUGCUCCGUUGAAUGGAGUUUAUCAUG | -2.4 |
| GGAUCUUCUCGAUCUAACAUAUAAGACAAAUCUGCCACAAAGAUUGAGAGCAUCUUCGGAUGCAGAGGCGGCAGCCUUCGGUGCCGCGAUAGCGCCAACGUUCUCAAGUAUGACAGGCAAAACGCGUGCUCCGUUGAAUGGAGUUUAUCAUG | ≤ -4.2 |
